Laboratory results taken from patent US20230074436A1 (DENALI THERAPEUTICS, published 2023).
No end group written: not given here. *: point of attachment. Biotin = O=C1N[C@H]2[C@H](CS[C@H]2CCCCC(=O)*)N1

What was measured:
[1] = molecular target: T1, alpha-synuclein peptide 1-61 (human); assay: peptide ELISA
T1 construct: synthetic peptide coated on plate

asyn_113-127 [2] = molecular target: T2, asyn_113-127 (human); assay: Ala-scan peptide ELISA, row A, run 2
T2 construct: also called pep1
T2 peptide: Biotin-LEDMPVDPDNEAYEM

asyn_113-127_118A [3] = molecular target: T3, asyn_113-127_118A (human); assay: Ala-scan peptide ELISA, row A, run 2
T3 construct: substitution is already in the entry; also called pep7
T3 peptide: Biotin-LEDMPADPDNEAYEM

asyn_113-127_123A [4] = molecular target: T4, asyn_113-127_123A (human); assay: Ala-scan peptide ELISA, row A, run 2
T4 construct: substitution is already in the entry; also called pep12
T4 peptide: Biotin-LEDMPVDPDNAAYEM

asyn_113-127_122A [5] = molecular target: T5, asyn_113-127_122A (human); assay: Ala-scan peptide ELISA, row A, run 2
T5 construct: substitution is already in the entry; also called pep11
T5 peptide: Biotin-LEDMPVDPDAEAYEM

asyn_113-127_120A [6] = molecular target: T6, asyn_113-127_120A (human); assay: Ala-scan peptide ELISA, row A, run 2
T6 construct: substitution is already in the entry; also called pep9
T6 peptide: Biotin-LEDMPVDADNEAYEM

asyn_113-127_119A [7] = molecular target: T7, asyn_113-127_119A (human); assay: Ala-scan peptide ELISA, row A, run 2
T7 construct: substitution is already in the entry; also called pep8
T7 peptide: Biotin-LEDMPVAPDNEAYEM

asyn_113-127_114A [8] = molecular target: T8, asyn_113-127_114A (human); assay: Ala-scan peptide ELISA, row A, run 2
T8 construct: substitution is already in the entry; also called pep3
T8 peptide: Biotin-LADMPVDPDNEAYEM

asyn_113-127_113A [9] = molecular target: T9, asyn_113-127_113A (human); assay: Ala-scan peptide ELISA, row A, run 2
T9 construct: substitution is already in the entry; also called pep2
T9 peptide: Biotin-AEDMPVDPDNEAYEM

asyn_113-127_127A [10] = molecular target: T10, asyn_113-127_127A (human); assay: Ala-scan peptide ELISA, row A, run 2
T10 construct: substitution is already in the entry; also called pep17
T10 peptide: Biotin-LEDMPVDPDNEAYEA

asyn_113-127_121A [11] = molecular target: T11, asyn_113-127_121A (human); assay: Ala-scan peptide ELISA, row A, run 2
T11 construct: substitution is already in the entry; also called pep10
T11 peptide: Biotin-LEDMPVDPANEAYEM

asyn_113-127_117A [12] = molecular target: T12, asyn_113-127_117A (human); assay: Ala-scan peptide ELISA, row A, run 2
T12 construct: substitution is already in the entry; also called pep6
T12 peptide: Biotin-LEDMAVDPDNEAYEM

asyn_113-127_115A [13] = molecular target: T13, asyn_113-127_115A (human); assay: Ala-scan peptide ELISA, row A, run 2
T13 construct: substitution is already in the entry; also called pep4
T13 peptide: Biotin-LEAMPVDPDNEAYEM

asyn_113-127_116A [14] = molecular target: T14, asyn_113-127_116A (human); assay: Ala-scan peptide ELISA, row A, run 2
T14 construct: substitution is already in the entry; also called pep5
T14 peptide: Biotin-LEDAPVDPDNEAYEM

mouse alpha-synuclein = mouse alpha-synuclein (mouse, UniProt O55042 1-140); assay: direct ELISA on coated antigen; Table 6 titration ELISA, mouse aSyn; Bmax 0.1 (weak binding)
beta-synuclein protein = molecular target: T15, beta-synuclein protein (human, UniProt Q16143 1-134); assay: ELISA on coated synuclein, 1 ug/mL
T15 construct: species read from 'recombinant human alpha-synuclein protein, beta-synuclein protein, and gamma-synuclein protein'

gamma-synuclein protein = molecular target: T16, gamma-synuclein protein (human, UniProt O76070 1-127); assay: ELISA on coated synuclein, 1 ug/mL
T16 construct: species read from 'recombinant human alpha-synuclein protein, beta-synuclein protein, and gamma-synuclein protein'

asyn_113-127 [15] = molecular target: T2, asyn_113-127; assay: Ala-scan peptide ELISA, row F, run 2
asyn_113-127_118A [16] = molecular target: T3, asyn_113-127_118A; assay: Ala-scan peptide ELISA, row F, run 2
[17] = molecular target: biotinylated human alpha-synuclein (human, UniProt P37840 1-140); assay: Ala-scan peptide ELISA, row F, run 2
asyn_113-127_123A [18] = molecular target: T4, asyn_113-127_123A; assay: Ala-scan peptide ELISA, row F, run 2
asyn_113-127_122A [19] = molecular target: T5, asyn_113-127_122A; assay: Ala-scan peptide ELISA, row F, run 2
asyn_113-127_120A [20] = molecular target: T6, asyn_113-127_120A; assay: Ala-scan peptide ELISA, row F, run 2
asyn_113-127_119A [21] = molecular target: T7, asyn_113-127_119A; assay: Ala-scan peptide ELISA, row F, run 2
asyn_113-127_125A = molecular target: T17, asyn_113-127_125A (human); assay: Ala-scan peptide ELISA, row F, run 2
T17 construct: substitution is already in the entry; also called pep15
T17 peptide: Biotin-LEDMPVDPDNEAAEM

asyn_113-127_114A [22] = molecular target: T8, asyn_113-127_114A; assay: Ala-scan peptide ELISA, row F, run 2
asyn_113-127_113A [23] = molecular target: T9, asyn_113-127_113A; assay: Ala-scan peptide ELISA, row F, run 2
asyn_113-127_127A [24] = molecular target: T10, asyn_113-127_127A; assay: Ala-scan peptide ELISA, row F, run 2
asyn_113-127_121A [25] = molecular target: T11, asyn_113-127_121A; assay: Ala-scan peptide ELISA, row F, run 2
asyn_113-127_124P = molecular target: T18, asyn_113-127_124P (human); assay: Ala-scan peptide ELISA, row F, run 2
T18 construct: substitution is already in the entry; also called pep14
T18 peptide: Biotin-LEDMPVDPDNEPYEM

asyn_113-127_117A [26] = molecular target: T12, asyn_113-127_117A; assay: Ala-scan peptide ELISA, row F, run 2
asyn_113-127_115A [27] = molecular target: T13, asyn_113-127_115A; assay: Ala-scan peptide ELISA, row F, run 2
asyn_113-127_124G = molecular target: T19, asyn_113-127_124G (human); assay: Ala-scan peptide ELISA, row F, run 2
T19 construct: substitution is already in the entry; also called pep13
T19 peptide: Biotin-LEDMPVDPDNEGYEM

asyn_113-127_126A = molecular target: T20, asyn_113-127_126A (human); assay: Ala-scan peptide ELISA, row F, run 2
T20 construct: substitution is already in the entry; also called pep16
T20 peptide: Biotin-LEDMPVDPDNEAYAM

asyn_113-127_116A [28] = molecular target: T14, asyn_113-127_116A; assay: Ala-scan peptide ELISA, row F, run 2

- antibody concentration at which ELISA is positive [1]: > 2600 ng/mL
- A450 (asyn_113-127 [2]): 0.374 OD
- A450 (asyn_113-127_118A [3]): 0.441 OD
- A450 (asyn_113-127_123A [4]): 0.441 OD
- A450 (asyn_113-127_122A [5]): 0.08 OD
- A450 (asyn_113-127_120A [6]): 0.314 OD
- A450 (asyn_113-127_119A [7]): 0.06 OD
- A450 (asyn_113-127_114A [8]): 0.401 OD
- A450 (asyn_113-127_113A [9]): 0.44 OD
- A450 (asyn_113-127_127A [10]): 0.504 OD
- A450 (asyn_113-127_121A [11]): 0.391 OD
- A450 (asyn_113-127_117A [12]): 0.462 OD
- A450 (asyn_113-127_115A [13]): 0.405 OD
- A450 (asyn_113-127_116A [14]): 0.418 OD
- EC50 (mouse alpha-synuclein): 4.3 nM
- binding result (beta-synuclein protein): no binding
- binding result (gamma-synuclein protein): no binding
- A450 (asyn_113-127 [15]): 0.148 OD
- A450 (asyn_113-127_118A [16]): 0.172 OD
- A450 [17]: 0.284 OD
- A450 (asyn_113-127_123A [18]): 0.151 OD
- A450 (asyn_113-127_122A [19]): 0.049 OD
- A450 (asyn_113-127_120A [20]): 0.111 OD
- A450 (asyn_113-127_119A [21]): 0.045 OD
- A450 (asyn_113-127_125A): 0.051 OD
- A450 (asyn_113-127_114A [22]): 0.139 OD
- A450 (asyn_113-127_113A [23]): 0.159 OD
- A450 (asyn_113-127_127A [24]): 0.162 OD
- A450 (asyn_113-127_121A [25]): 0.143 OD
- A450 (asyn_113-127_124P): 0.047 OD
- A450 (asyn_113-127_117A [26]): 0.163 OD
- A450 (asyn_113-127_115A [27]): 0.075 OD
- A450 (asyn_113-127_124G): 0.133 OD
- A450 (asyn_113-127_126A): 0.169 OD
- A450 (asyn_113-127_116A [28]): 0.165 OD
B1: 20H4 (antibody, rat IgG2b, V domains shown)
VH: AVQLVESGGGLVQPKESLKISCAASGFTFSNAAMYWVRQAPGKGLELLARIRTKPNNYATYHADSVKGRFTISRDDSQSMVYLHMGNLKTEDTAMYYCTADMATGDYWGPGVMVTVSS
VL: DIQMTQSPPVLSVSVGDRVTLSCKASQNINKNLDWYQQKHGEAPKPLIYSTNNLQTGVPSRFSGSGSGTDYTLTISSLQPEDVATYYCYQYKSAWTFGGGTKLELR
notes: also called clone 20H4; rat 20H4
